These results are taken from patent publication US20250276082A1 (INNOLAKE BIOPHARMA HANGZHOU, published 2025).

Sequences and labels used below:
B1: hu15A2 (antibody, IgG1, V domains shown)
VH: QVQLVQSGAEVKKPGASVKVSCKASGYTFTSYDINWVRQATGQGLEWIGWIDPGDGSTKYNEKFKGRATLTANKSISTAYMELSSLRSEDTAVYYCVRRGFDYWGQGTLVTVSS
VL: EIVLTQSPATLSLSPGERATLSCRTSSSVSYLHWFQQKPGQAPRLWIHDTSNLASGFPARFSGSGSGTDYTLTISSLEPEDFAVYYCHQRSSYPWTFGGGTKVEIK
notes: expressed in 293 cells; also called humanized antibody 15A2
B2: hu5B6 (antibody, IgG1, V domains shown)
VH: QVQLVQSGAEVKKPGSSVKVSCKASGYTFITYTIHWVRQAPGQGLEWIGYINPTSDYANFNQKFKDRATLTADKSTSTAYMELSSLRSEDTAVYYCARWGTTVFQFYFDYWGQGTLVTVSS
VL: EIVLTQSPATLSLSPGERATLSCRASQSLSYINWYQQKPGKAPKPWIYATSSLQSGVPSRFSGSASGTDYTLTISSLQPEDFATYYCQHWSSDPPTIGGGTKVEIK
notes: expressed in 293 cells; also called humanized antibody 5B6; humanized 5B6
B3: hu7B7 (antibody, IgG1, V domains shown)
VH: EVQLVESGGGLVKPGGSLRLSCAASGFTFSSYAVSWVRQAPGKGLEWVASISGGGIYIYYPDSVKGRFTISRDNAKNSLYLQMNSLRAEDTAVYYCARHGGAGYFDYWGQGTLVTVSS
VL: DSQMTQSPSSLSASVGDRVTITCRGSESVHSYLAWYQQKPGKAPKLLVYNAKTLQSGVPSRFSGSGSGTDFTLTISSLQPEDFATYYCQQHYGSPPWTFGGGTKVEIK
notes: expressed in 293 cells; also called humanized antibody 7B7
B4: hu2A9 (antibody, IgG1, V domains shown)
VH: QVQLVQSGAEVKKPGASVKVSCKTSGYTFTEYIMHWVRQAPGQGLEWIGGINPNSGGTTYNEKFKGRATLTVDKSISTAYMELSRLRSDDTAVYYCARRMPYWYFDVWGQGTMVTVSS
VL: EIVLTQSPATLSLSPGERATLSCSASSSVSYIHWYQQKPGQAPRRWVYDTSKLASGIPARFSGSGSGTDYTLTISSLEPEDFAVYYCQQWVSNPLTFGQGTKLEIK
notes: expressed in 293 cells; also called humanized antibody 2A9; humanized 2A9
B5: hu9C8 (antibody, IgG1, V domains shown)
VH: QVQLVQSGAEVKKPGASVKVSCKASGYTFTEYTIHWVRQAPGQGLEWIGGINPNSGGTTYNLKFKGRATLTVDKSTSTVYMELSSLRSEDTAVYYCARKEGFFTTDYWGQGTLVTVSS
VL: B4 VL with I2T, V29L, V47I, K52N, S55T, V91H, S92Y, L95P, Q99G, L103V
notes: expressed in 293 cells; also called humanized antibody 9C8; humanized 9C8
B6: hu4F11 (antibody, IgG1, V domains shown)
VH: QVQLVQSGAEVKKPGASVKVSCKTSGYTFTEYIMHWVRQAPGQGLEWIGGINPNTGGITYNQKFKDRATLTVDKSISTAYMELSRLRSDDTAVYYCARAGGNFLWYFDVWGQGTMVTVSS
VL: B4 VL with I32M, V47L, V91N
notes: expressed in 293 cells; also called humanized antibody 4F11; humanized 4F11

Numbering of substitutions follows the chain as printed.

The first experiment concerns the target T1, B7H3 on the cell surface (PC9 cells; 293T-B7H3 cells) (UniProt Q5ZPR3 29-534, limits assumed).
T1 construct: whole, on cells; both carry B7H3 on the surface; also called Cell Surface B7H3; B7H3 protein in PC9 cells
T1 sequence (looked up): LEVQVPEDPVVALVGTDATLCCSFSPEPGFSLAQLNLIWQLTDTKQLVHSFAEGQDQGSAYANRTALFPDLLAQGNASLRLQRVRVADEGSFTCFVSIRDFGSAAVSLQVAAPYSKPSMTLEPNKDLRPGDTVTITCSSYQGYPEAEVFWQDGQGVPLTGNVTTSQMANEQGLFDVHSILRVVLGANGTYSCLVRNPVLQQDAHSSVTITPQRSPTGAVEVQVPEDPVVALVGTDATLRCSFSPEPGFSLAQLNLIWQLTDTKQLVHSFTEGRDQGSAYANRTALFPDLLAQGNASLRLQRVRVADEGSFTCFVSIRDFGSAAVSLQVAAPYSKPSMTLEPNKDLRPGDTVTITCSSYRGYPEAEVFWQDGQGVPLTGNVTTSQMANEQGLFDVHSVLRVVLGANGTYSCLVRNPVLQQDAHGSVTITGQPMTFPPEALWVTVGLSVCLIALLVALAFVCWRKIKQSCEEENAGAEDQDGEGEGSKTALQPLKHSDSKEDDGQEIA
The experiment in a line: FACS, cell surface B7H3 (PC9 cells per FIG. 10). In general terms: In flow cytometry, cells or beads pass a laser one at a time.
What is called EC50 is the concentration at which the effect is half-maximal. A higher EC50 goes with lower potency in that assay. Molecule B1 yielded a 50% effective concentration (EC50) of 0.0143 µg/mL.

With B2, the response was half-maximal at 0.0621 µg/mL (EC50). Compared with the last molecule, the EC50 is about 4.3-fold higher.

Molecule B3 registered an EC50 of 0.0113 µg/mL.

The molecule B4 yielded an EC50 of 0.14 µg/mL.

In turn, B5 yielded a concentration giving a half-maximal response (EC50) of 0.079 µg/mL. Against the preceding molecule, the EC50 is about 1.8-fold lower.

Regarding B6, the EC50 came to 0.127 µg/mL.

Another experiment concerns the target T2, Human B7H3 extracellular domain and mFc fusion protein (B7H3-ECD-mFc) (human, UniProt Q5ZPR3 29-466).
T2 construct: extracellular domain; also called B7H3-mFc; B7H3-mFc Protein; not shown: mouse Fc (mFc)
T2 sequence (looked up): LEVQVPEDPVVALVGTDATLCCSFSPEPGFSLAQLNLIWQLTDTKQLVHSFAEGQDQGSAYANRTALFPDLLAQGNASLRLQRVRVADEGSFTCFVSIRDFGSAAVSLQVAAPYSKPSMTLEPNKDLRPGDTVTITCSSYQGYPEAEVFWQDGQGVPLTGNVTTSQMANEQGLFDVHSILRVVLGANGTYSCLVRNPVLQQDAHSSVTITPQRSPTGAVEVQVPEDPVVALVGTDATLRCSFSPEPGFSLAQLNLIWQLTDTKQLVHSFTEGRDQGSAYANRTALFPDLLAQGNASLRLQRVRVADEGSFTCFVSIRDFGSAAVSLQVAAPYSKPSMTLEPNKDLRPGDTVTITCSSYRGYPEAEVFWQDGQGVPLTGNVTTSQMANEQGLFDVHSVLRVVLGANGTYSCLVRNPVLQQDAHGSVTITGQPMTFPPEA
The experiment in a line: ELISA, B7H3-mFc protein (table title), humanized IgG1. A general note: ELISA stands for enzyme-linked immunosorbent assay.
For B1, the response was half-maximal at 0.00384 µg/mL (EC50).

In turn, B2 registered an EC50 of 0.0127 µg/mL.

For B3, it took 0.00635 µg/mL to reach a half-maximal effect (EC50).

In turn, B4 returned a 50% effective concentration (EC50) of 0.0175 µg/mL.

For B5, the EC50 was found to be 0.0199 µg/mL. This EC50 and that of the molecule before are within 1.5-fold of each other.

In turn, B6 displayed an EC50 of 0.0406 µg/mL.
